{"source": "patent US20120252054A1", "about": "“SYSTEM FOR TRANSFORMATION OF THE CHLOROPLAST GENOME OF SCENEDESMUS SP. AND DUNALIELLA SP” (priority 2009, published 2012)", "molecules": {"B1": {"name": "endoxylanse: endoxylanase from T. reesei (BD11) expressed in the S. dimorphus chloroplast (protein)", "chain": "MVPVSFTSLLAASPPSRASCRPAAEVESVAVEKRQTIQPGTGYNNGYFYSYWNDGHGGVTYTNGPGGQFSVNWSNSGNFVGGKGWQPGTKNKVINFSGSYNPNGNSYLSVYGWSRNPLIEYYIVENFGTYNPSTGATKLGEVTSDGSVYDIYRTQRVNQPSIIGTATFYQYWSVRRNHRSSGSVNTANHFNAWAQQGLTLGTMDYQIVAVEGYFSSGSASITVSGTGDYKDDDDKSGENLYFQGHNHRHKHTG", "modifications": "codon optimized endoxylanase from T. reesei", "notes": "endoxylanase from T. reesei (BD11) expressed in the S. dimorphus chloroplast"}}, "assay": "Endoxylanase enzyme function assay on clarified lysates", "assay_type": "biochemical, T. reesei", "conditions": "clarified lysates of S. dimorphus transformants (parent 2 and 4), normalized for total soluble protein, pH 4.8, 42 degrees Celsius", "protocol": "To determine if the endoxylanase produced by transformed algae cells was functional, endoxylanase activity was tested using an enzyme function assay. Briefly, algae cells were collected from TAP agar medium and suspended in BugBuster solution (Novagen). Cells were lysed by bead beating using zirconium beads. Cell lysates were clarified by centrifugation and the supernatants were normalized for total soluble protein (Coomassie Plus Protein Assay Kit, Thermo Scientific). 100 μL of each sample was mixed with 10 μL of 10× xylanase assay buffer (1M sodium acetate, pH=4.8) and 50 μL of the sample mixture was added to one well in a black 96-well plate. EnzCheck Ultra Xylanase substrate (Invitrogen) was dissolved at a concentration of 50 ug/ml in 100 mM sodium acetate pH 4.8, and 50 μL of substrate was added to each well of the microplate. The fluorescent signal was measured in a SpectraMax M2 microplate reader (Molecular Devices), with an excitation wavelength of 360 nm and an emission wavelength of 460 nm, without a cutoff filter and with the plate chamber set to 42 degrees Celsius. The fluorescence signal was measured for 15 minutes, and the enzyme velocity was calculated with Softmax Pro v5.2 (Molecular Devices). Enzyme velocities were recorded as RFU/minute. Enzyme specific activities were calculated as milliRFU per minute per μg of total soluble protein.", "data": [{"molecule": "B1", "values": [{"measurement": "endoxylanase activity in transformants relative to wild type cells", "result": "at least 4 fold"}]}]}
